According to FireProtDB (doi:10.1093/protein/12.7.581):

B1: Alpha-lactalbumin, P00711 (parent)
chain: MMSFVSLLLVGILFHATQAEQLTKCEVFRELKDLKGYGGVSLPEWVCTTFHTSGYDTQAIVQNNDSTEYGLFQINNKIWCKDDQNPHSSNICNISCDKFLDDDLTDDIMCVKKILDKVGINYWLAHKALCSEKLDQWLCEKL

Variants of: B1
Conditions: Bos taurus; pH 7.4; Thermal; CD; Tris-HCl 20 mM; CaCl2 1 mM; reversible: yes(>95%); structure 1HFZ; whole UniProt chain shown

Variant | change of melting temperature, mutant - wild type (higher = more stable) [°C] | ddG of mutation (higher = less stable) [kcal/mol] | unfolding enthalpy (van 't Hoff) [kcal/mol]
W137Y | -5.4 | 1.17 | 67.2
A125S | -6.1 | 1.05 | 51.6
H126W | -8.7 | 1.72 | 57.8
K133N | 10.7 | -2.65 | 91.3
L129H | 6.3 | -1.39 | 77.4
